T1: human CD19 (antigen) (human, UniProt P15391 20-291, limits assumed)
T1 sequence (looked up): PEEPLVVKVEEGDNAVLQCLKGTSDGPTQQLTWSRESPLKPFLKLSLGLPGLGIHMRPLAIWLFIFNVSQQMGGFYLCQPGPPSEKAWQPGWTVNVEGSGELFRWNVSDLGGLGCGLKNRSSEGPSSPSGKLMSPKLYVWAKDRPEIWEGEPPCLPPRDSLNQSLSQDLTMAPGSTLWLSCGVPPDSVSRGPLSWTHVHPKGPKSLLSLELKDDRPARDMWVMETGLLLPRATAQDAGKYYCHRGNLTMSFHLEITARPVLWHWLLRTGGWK

T2: BCMA expressed on target cells (CHO-K1-BCMA recombinant cell line; MM.1S; RPMI8226) (human, UniProt Q02223 1-184)
T2 sequence (looked up): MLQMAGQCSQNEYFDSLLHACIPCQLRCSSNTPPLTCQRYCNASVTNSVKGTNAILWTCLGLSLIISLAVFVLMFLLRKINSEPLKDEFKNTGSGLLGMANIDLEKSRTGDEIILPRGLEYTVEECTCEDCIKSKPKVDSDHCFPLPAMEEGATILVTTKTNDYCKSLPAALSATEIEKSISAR

T3: CD19 expressed on Nalm6 cells (UniProt P15391 20-556, limits assumed)
T3 sequence (looked up): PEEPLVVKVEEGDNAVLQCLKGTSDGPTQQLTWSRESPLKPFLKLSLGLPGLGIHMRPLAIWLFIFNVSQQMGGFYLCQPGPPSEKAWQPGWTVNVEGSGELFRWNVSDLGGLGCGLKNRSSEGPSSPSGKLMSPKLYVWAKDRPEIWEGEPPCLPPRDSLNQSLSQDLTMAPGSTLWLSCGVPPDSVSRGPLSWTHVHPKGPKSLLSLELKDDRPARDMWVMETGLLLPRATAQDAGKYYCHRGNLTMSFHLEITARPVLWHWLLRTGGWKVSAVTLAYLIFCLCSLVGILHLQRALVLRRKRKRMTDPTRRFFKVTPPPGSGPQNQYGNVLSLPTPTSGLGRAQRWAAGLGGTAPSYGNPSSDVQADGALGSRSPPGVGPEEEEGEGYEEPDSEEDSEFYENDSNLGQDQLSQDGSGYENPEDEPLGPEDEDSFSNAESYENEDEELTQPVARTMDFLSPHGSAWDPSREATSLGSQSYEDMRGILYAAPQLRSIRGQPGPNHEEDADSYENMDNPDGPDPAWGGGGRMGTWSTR

T4: human BCMA (antigen) (human, UniProt Q02223 1-54, limits assumed)
T4 construct: Antigen coupled to the CM5 chip in SPR; also called B-cell maturation antigen; TNFRF17
T4 sequence (looked up): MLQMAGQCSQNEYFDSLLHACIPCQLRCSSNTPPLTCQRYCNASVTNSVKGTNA

B1: humanized anti-CD19 antibody (H-CD19) (antibody, V domains shown)
VH: QVTLRESGPALVKPTQTLTLTCTFSGVSLPDYGVSWIRQPPGKALEWLAVIWGSETTYYNSALKSRLTISKDTSKNQVVLTMTNMDPVDTATYYCAKHYYYGGSYAMDYWGQGTTVTVSS
VL: EIVLTQSPATLSLSPGERATLSCRASQDISKYLNWYQQKPGQAPRLLIYHTSRLHSGIPDRFSGSGSGTDFTLTISRLEPEDIAVYYCQQGNTLPYTFGQGTKLEI
notes: also called humanized monoclonal antibody
B2: TanCAR 02 (other)
chain: DIVMTQSPLSLPVTPGEPASISCRSSQSLVHSNGNTFLHWYLQKPGQSPQLLIYKVSNRFSGVPDRFSGSGSGTDFTLKISRVEAEDVGVYYCMQSTHVLTFGGGTKLEIKRAGGGGSGGGGSGGGGSQVQLVQSGAEVKKPGASVKVSCKASGYTFTDYLMHWVRQAPGQGLEWMGWINTETGEPTYADDFKGRVTMTRDTSTSTVYMELSSLRSEDTAVYYCAPSLYYGYSWFTYWGQGTLVTVSEAAAKEAAAKEAAAKQVTLRESGPALVKPTQTLTLTCTFSGVSLPDYGVSWIRQPPGKALEWLAVIWGSETTYYNSALKSRLTISKDTSKNQVVLTMTNMDPVDTATYYCAKHYYYGGSYAMDYWGQGTTVTVSSGGGGSGGGGSGGGGSEIVLTQSPATLSLSPGERATLSCRASQDISKYLNWYQQKPGQAPRLLIYHTSRLHSGIPDRFSGSGSGTDFTLTISRLEPEDIAVYYCQQGNTLPYTFGQGTKLEITTTPAPRPPTPAPTIASQPLSLRPEACRPAAGGAVHTRGLDFACDIYIWAPLAGTCGVLLLSLVITLYCKRGRKKLLYIFKQPFMRPVQTTQEEDGCSCRFPEEEEGGCELRVKFSRSADAPAYKQGQNQLYNELNLGRREEYDVLDKRRGRDPEMGGKPRRKNPQEGLYNELQKDKMAEAYSEIGMKGERRRGKGHDGLYQGLSTATKDTYDALHMQALPPR
notes: Tandem bispecific chimeric antigen receptor on human T cells; built here from its parts without the signal peptide; also called TanCAR 02 CAR-T

Experiments:
human CD19 (antigen) [1] = target: T1, human CD19 (antigen); test: affinity determination, method not stated; humanized monoclonal antibody
[2] = target: T2, BCMA expressed on target cells …; test: cell-based or functional assay
[3] = target: T3, CD19 expressed on Nalm6 cells; test: cell-based or functional assay
human BCMA (antigen) = target: T4, human BCMA (antigen); test: flow cytometry of lentivirus-transduced T cells labelled with antigen, 48 h after transduction; percent positive cells
Text: (§1) The nucleic acid sequence encoding the CAR was expressed under the drive of a promoter, therefore the lentivirus-transfected T cells could be labeled with an antigen or anti-CD19 antibody and measured by flow cytometry, to reflect the expression level of the CAR on the surface of the T cells.

human CD19 (antigen) [4] = target: T1, human CD19 (antigen); test: flow cytometry of lentivirus-transduced T cells labelled with antigen or anti-CD19 antibody, 48 h after transduction; percent positive cells
Text: as §1

Binder	Kd (human CD19 (antigen) [1])	lysis rate of CHO-K1-BCMA-luc cells by CAR-T cells, ratio 0.25:1 [2]	lysis rate of CHO-K1-BCMA-luc cells by CAR-T cells, ratio 0.5:1 [2]	lysis rate of CHO-K1-BCMA-luc cells by CAR-T cells, ratio 1:1 [2]	lysis rate of CHO-K1-BCMA-luc cells by CAR-T cells, ratio 2:1 [2]	lysis rate of Nalm6-luc cells by CAR-T cells, ratio 0.25:1 [3]	lysis rate of Nalm6-luc cells by CAR-T cells, ratio 0.5:1 [3]	lysis rate of Nalm6-luc cells by CAR-T cells, ratio 1:1 [3]	lysis rate of Nalm6-luc cells by CAR-T cells, ratio 2:1 [3]	Positive rate of binding to BCMA (human BCMA (antigen))	Positive rate of binding to CD19 (human CD19 (antigen) [4])
B1	28.4 nM	–	–	–	–	–	–	–	–	–	–
B2	–	24%	35.9%	60.7%	59%	26.1%	49.8%	70.1%	82.4%	14.1%	12.7%

Source: patent US20230203178A1 (SICHUAN KELUN BIOTECH BIOPHARMACEUTICAL, published 2023)
